Measured values taken from US20240010735A1 (EISAI R AND D MANAGEMENT, published 2024).

Experiments:
Experiment in all cases: ELISA: SEAP-His proteins (1 nM) captured on anti-6-His antibody, antibody B 10 µg/mL with human IgG 100 µg/mL, HRP anti-human IgG, OD450 as % of human EphA4-SEAP-His
[1] = biological target: T1, human EphA1 extracellular region-SEAP-His protein (human, UniProt P21709 26-547)
T1 construct: extracellular domain; also called Eph receptor extracellular region-SEAP-His protein; not shown: secretory alkaline phosphatase (SEAP); histidine tag
T1 sequence (looked up): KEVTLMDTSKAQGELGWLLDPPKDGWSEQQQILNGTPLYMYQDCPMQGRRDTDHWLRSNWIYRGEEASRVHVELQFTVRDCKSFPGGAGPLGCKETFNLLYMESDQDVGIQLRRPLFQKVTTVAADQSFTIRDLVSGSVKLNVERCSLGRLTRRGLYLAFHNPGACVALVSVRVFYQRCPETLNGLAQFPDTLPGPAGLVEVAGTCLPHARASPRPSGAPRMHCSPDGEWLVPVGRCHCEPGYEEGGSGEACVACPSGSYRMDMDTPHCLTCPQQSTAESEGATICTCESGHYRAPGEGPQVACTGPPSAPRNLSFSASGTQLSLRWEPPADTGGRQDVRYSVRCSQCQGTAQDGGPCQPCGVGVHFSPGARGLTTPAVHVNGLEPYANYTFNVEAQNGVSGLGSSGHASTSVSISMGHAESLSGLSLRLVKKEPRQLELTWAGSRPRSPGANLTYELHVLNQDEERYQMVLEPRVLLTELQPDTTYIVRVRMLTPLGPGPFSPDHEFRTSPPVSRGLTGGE

[2] = biological target: T2, human EphA10 extracellular region-SEAP-His protein (human, UniProt Q5JZY3 34-565)
T2 construct: extracellular domain; also called Eph receptor extracellular region-SEAP-His protein; not shown: secretory alkaline phosphatase (SEAP); histidine tag
T2 sequence (looked up): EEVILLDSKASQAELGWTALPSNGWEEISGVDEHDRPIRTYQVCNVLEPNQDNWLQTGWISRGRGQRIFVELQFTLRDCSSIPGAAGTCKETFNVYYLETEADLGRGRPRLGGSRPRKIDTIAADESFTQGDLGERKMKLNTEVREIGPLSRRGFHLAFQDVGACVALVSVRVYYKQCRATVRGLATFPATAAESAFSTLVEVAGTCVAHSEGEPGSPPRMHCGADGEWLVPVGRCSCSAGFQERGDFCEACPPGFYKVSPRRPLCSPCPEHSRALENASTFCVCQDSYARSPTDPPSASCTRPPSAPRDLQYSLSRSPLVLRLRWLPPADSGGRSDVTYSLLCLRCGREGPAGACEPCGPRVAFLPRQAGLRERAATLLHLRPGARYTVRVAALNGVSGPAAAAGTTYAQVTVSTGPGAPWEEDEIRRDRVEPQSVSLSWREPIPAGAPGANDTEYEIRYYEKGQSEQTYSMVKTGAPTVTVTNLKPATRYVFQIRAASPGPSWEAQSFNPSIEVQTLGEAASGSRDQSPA

[3] = biological target: T3, human EphA8 extracellular region-SEAP-His protein (human, UniProt P29322 28-542)
T3 construct: extracellular domain; also called Eph receptor extracellular region-SEAP-His protein; not shown: secretory alkaline phosphatase (SEAP); histidine tag
T3 sequence (looked up): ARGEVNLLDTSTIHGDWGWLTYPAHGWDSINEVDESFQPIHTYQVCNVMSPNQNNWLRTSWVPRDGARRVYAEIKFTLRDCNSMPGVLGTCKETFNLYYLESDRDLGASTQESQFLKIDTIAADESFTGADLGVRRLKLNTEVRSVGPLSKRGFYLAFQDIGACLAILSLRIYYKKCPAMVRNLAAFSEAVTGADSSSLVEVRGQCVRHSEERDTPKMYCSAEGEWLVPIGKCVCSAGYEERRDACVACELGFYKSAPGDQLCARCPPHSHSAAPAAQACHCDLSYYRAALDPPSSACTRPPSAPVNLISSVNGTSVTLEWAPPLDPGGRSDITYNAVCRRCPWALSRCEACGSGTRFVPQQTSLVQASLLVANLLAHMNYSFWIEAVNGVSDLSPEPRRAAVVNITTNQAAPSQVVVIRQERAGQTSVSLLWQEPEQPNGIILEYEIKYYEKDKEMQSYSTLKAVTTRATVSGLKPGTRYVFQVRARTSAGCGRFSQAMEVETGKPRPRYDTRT

Measured: binding result

B1: humanized anti-EphA4 monoclonal antibody (antibody B) (antibody, human IgG2, V domains shown)
VH: QVQLVESGGGVVQPGRSLRLSCAVSGFSLTRFGVHWVRQAPGKGLEWVAVIWRGGSTDYNAAFMSRLTISKDNSKNTVYLQMNSLRAEDTAVYYCAKESLFGVYYDYGYYSMDYWGQGTTVTVSS
VL: DIQMTQSPSSLSASVGDRVTITCRASQEISGYLSWLQQKPGKAPKRLIYAASTLDSGVPSRFSGSRSGTEYTLTISSLQPEDFATYYCLQYASYPLTFGGGTKVEIKR
notes: expressed in Expi293F cells; also called humanized antibody of antibody A; HK2-42 / L1-8
no binding (tested: 10 µg/mL): all assays above
